Experimental data: patent publication US11697680B2, “Anti-GP73 antibodies and immunoconjugates” (CUREAB GMBH, priority 2016, dated 2023)

Experiments:
[1] = target: T1, Furin cleavage of recombinant GP73-HIS (Homo sapiens, UniProt Q8NBJ4); assay: Furin cleavage of GP73-HIS depending on antibody binding (capture ELISA); assay type: biochemical; settings: 3 U and 1.5 U of Furin; 2 hours at 30° C.
T1 construct: purchased Biolegend
T1 sequence (Q8NBJ4 36-401 limits assumed): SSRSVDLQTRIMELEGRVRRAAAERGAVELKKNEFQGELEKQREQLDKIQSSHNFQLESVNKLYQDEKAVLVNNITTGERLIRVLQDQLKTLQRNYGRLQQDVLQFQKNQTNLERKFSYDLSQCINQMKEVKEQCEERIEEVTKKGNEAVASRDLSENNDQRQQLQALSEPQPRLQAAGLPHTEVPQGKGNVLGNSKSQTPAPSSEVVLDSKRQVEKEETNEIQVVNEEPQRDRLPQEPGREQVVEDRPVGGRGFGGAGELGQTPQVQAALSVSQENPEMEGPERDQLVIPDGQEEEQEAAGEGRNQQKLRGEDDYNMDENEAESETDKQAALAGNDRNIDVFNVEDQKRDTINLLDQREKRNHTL
Source text: Measurements of Furin cleavage of GP73 using a range from 0 units to 3 units of Furin are depicted.
Testing of Furin cleavage exploits the fact that antibodies G2-1 and G2-2 bind GP73 N-terminal of or at the furin cleavage site 56R whereas recombinant GP73 with C-terminal HIS tag (GP73-HIS) is detected by anti HIS antibody at the C-terminus of GP73. Plate bound anti human IgG can capture G2-1 or G2-2, which binds GP73-HIS. If furin cleavage occurs in a setting where G2-1 or G2-2 have already bound to GP73-HIS, only N-terminal part of GP73 will reside at the G2 antibodies. In contrast, if furin cleavage is hindered by G2 antibodies, GP73-HIS can be detected by an anti HIS antibody.
Furin cleavage was carried out in 1.5 ml tubes. To test if G2 antibodies can hinder furin cleavage recombinant GOLPH-HIS protein (Biolegend) and G2-2 or G2-1 was incubated for 2 hours in 100 mM HEPES and 1 mM CaCl2 buffer pH 7.5 to allow antibody binding to GP73. […]
From each reaction 2×100 ul were transferred to wells of a 96 well plate that had been coated over night with anti human IgG and was blocked with 1% gelatine in PBS. After one hour incubation at room temperature the plate was washed, incubated with anti HIS-hrp antibody for one hour, washed again, incubated with a chromogenic substrate (TMB Amersham) to detect peroxidase, stopped and read at 450 nm.

[2] = target: peptide AA 36-55 of GP73 (Homo sapiens, UniProt Q8NBJ4); assay: pH dependent peptide ELISA; assay type: binding; settings: pH range of 7.4 to 5.4
Protocol: A peptide ELISA was performed to test for pH dependency of binding to peptide AA 36-55 of GP73.
ELISA was carried out in 96 well plates coated overnight with biotinylated peptide and blocked with 2% gelatine. Horse radish peroxidase labeled antibodies G2-1 (G2-1-HRP) or G2-2 (G2-2-HRP) were applied and incubated for 1.5 hours. For competition testing non labeled G2-1 or G2-2 was added at high concentration. For pH dependent binding the antibodies were applied in phosphate buffer pH 4.4, 5.4, 6.4 or 7.4. After extensive washing a chromogenic substrate (TMB Amersham) was added to detect peroxidase. The reaction was stopped and absorbance was read at 450 nm.

B1: G2-2: scFv clone with human IgG1 heavy and human Igk light constant regions; VH/VL SEQ ID NO: 2 and 3; binds rGP73 AA 36-55 (antibody, V domains shown)
VH: EVQLLQSGGGVVQPGRSLRLSCAASGFTFSSYGMSWVRQAPGKGLEWVAVISYDGSNKYYADSVKGRFTISRDNSKNTLYLQMNSLRAEDTAVYYCAREGSAGMDVWGQGTTVTVSS
VL: DIQMTQPSSLSASPGASASLTCTLRSDISVGFHRIYWYQQKPGSPPQYLLRYKSDSDKQQGSGVPSRFSGSKDASANAGILLISGLQSDDEADYYCVIWHTSGVVFGGGTKVEIK
modifications: human IgG1 and Igk constant regions not cited; G2-2 heavy chain variable region (VH); G2-2 light chain variable region (VL)
Furin cleavage of GP73 after preincubation with antibody [1]: significant reduction in Furin cleavage
pH dependency of binding to peptide AA 36-55 of GP73 [2]: Stable binding
